According to patent publication US20210079060A1 (ALETA BIOTHERAPEUTICS, published 2021):
Changes are numbered by the printed parent chain. Where “and” joins values, the source holds several entries; their conditions need not be identical. Identical values can stand only once. Like-named read-outs stand apart in the source and are kept apart here. Blank lines part the entries; values can stand above or below the binder they belong to.

How the values were obtained:
[1] = biological target: T1, Clec12A (human, UniProt Q5QGZ9 1-265); assay: sandwich ELISA: coated with FMC63, construct titrated (x-axis ug/ml), followed by Clec12A-bio, detected by HRP-SA
T1 construct: whole, on cells; also called CLL-1; MICL
T1 sequence (looked up): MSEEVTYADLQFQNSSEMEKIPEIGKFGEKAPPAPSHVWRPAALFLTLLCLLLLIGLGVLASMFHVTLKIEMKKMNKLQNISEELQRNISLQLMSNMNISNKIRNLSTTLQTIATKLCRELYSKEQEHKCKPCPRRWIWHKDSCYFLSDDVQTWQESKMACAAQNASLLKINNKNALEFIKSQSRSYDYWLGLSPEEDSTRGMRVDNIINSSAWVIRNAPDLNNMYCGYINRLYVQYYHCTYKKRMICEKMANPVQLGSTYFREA

[2] = biological target: T1, Clec12A; assay: binding to U937 cells; supernatant; MW = 46kDa
[3] = biological target: T1, Clec12A; assay: binding to U937 cells; supernatant
[4] = biological target: T1, Clec12A; assay: sandwich ELISA: coated with FMC63, construct titrated (x-axis ug/ml), followed by Clec12A-bio, detected by HRP-SA; remark: listed apart in the source
[5] = biological target: T2, EGFR (UniProt P00533 25-1210, limits assumed); assay: binding to EGFR positive cells (data not shown)
T2 construct: whole, on cells; also called EGFR positive cells; EGFR positive H292 cells

B1: anti-CLEC12a VHH 1A10-CD19 D1+2 C term mutant #2 (VHH)
VHH: QVQLQESGGGLVQVGESLRLSCVVSGDTRSINLMGWYRQAPGKQRELVAACASDGNTYYADSVKGRFTISRDNAEKTVYLQMNNLKPDDTAVYYCDANSRGNYYSGQGTLVTVSS
C of the 4-P fit (midpoint) [1]: 0.00751 µg/mL
EC50 [1]: 0.0075 µg/mL and 0.161 nM

B2: CD19 mutant #2-G4Sx4-anti CLEC12a VHH 2H3-myc-His (VHH)
chain: PEEPLVVKVEEGDTAVLPCLKGTSDGPTQQLTWSRESPLKPFLKYSLGVPGLGVHVRPDAISVVIRNVSQQMGGFYLCQPGPPSEKAWQPGWTVNVEGSGELFRWNVSDLGGLGCGLKNRSSEGPSSPSGKLMSPKLYVWAKDRPEIWEGEPPCLPPRDSLNQSLSQDLTMAPGSTLWLSCGVPPDSVSRGPLSWTHVHPKGPKSLLSLELKDDRPAREMIVDETGLLLPRATAQDAGKWYCSRGNVTTSYHLEITARPVKAHSDLRTGGWKGGGGSGGGGSGGGGSGGGGSQVQLQESGGGLVQAGGSLRLSCVASGSIRSINVMGWYRQAPGKQRELVAACASDGNTYYADSVKGRFTISRDNAEKTVYLQMNNLKPDDTAVYYCDANSRGNYYSGQGTQVTVSSTSGPGGQGAEQKLISEEDLGAHHHHHHGAS
notes: CD19 variant-VHH fusion
EC50 [2]: 4.87 nM
EC50 [3]: 0.224 µg/mL
C of the 4-P fit (midpoint) [4]: 0.0201 µg/mL
EC50 [4]: 0.0201 µg/mL and 0.432 nM

B4: CD19 ECD N term mutant#1-EGFR Fn3 (designed binder)
chain: PEEPLVVKVEEGDDAWLRCLKGTSDGPTSQVTWSRESPLKPFLKYSLGVPGLGVHIRPLAIGLVIPNVSQQMGGFYLCQPGPPSEKAWQPGWTVNVEGSGELFRWNVSDLGGLGCGLKNRSSEGPSSPSGKLMSPKLYVWAKDRPEIWEGEPPCLPPRDSLNQSLSQDLTMAPGSTLWLSCGVPPDSVSRGPLSWTHVHPKGPKSLLSLELKDDRPAREMIVDETGLLLPRATAQDAGKYYCHRGNRTISYHLEITARPVSAHTPLRTGGWKGGGGSGGGGSGGGGSGGGGSVSDVPRDLEVVAATPTSLLISWFDYAVTYYRITYGETGGNSPVQEFTVPGWISTATISGLKPGVDYTITVYAVTDNSHWPFRSTPISTNYRTEIDKPPQHHHHHH
notes: also called construct #227; CD19-Fn3/EGFR
binding result [5]: binds

B6: CD19 mutant #2-G4Sx4-anti CLEC12a VHH 1G6-myc-His (VHH)
chain: PEEPLVVKVEEGDTAVLPCLKGTSDGPTQQLTWSRESPLKPFLKYSLGVPGLGVHVRPDAISVVIRNVSQQMGGFYLCQPGPPSEKAWQPGWTVNVEGSGELFRWNVSDLGGLGCGLKNRSSEGPSSPSGKLMSPKLYVWAKDRPEIWEGEPPCLPPRDSLNQSLSQDLTMAPGSTLWLSCGVPPDSVSRGPLSWTHVHPKGPKSLLSLELKDDRPAREMIVDETGLLLPRATAQDAGKWYCSRGNVTTSYHLEITARPVKAHSDLRTGGWKGGGGSGGGGSGGGGSGGGGSQVQLQQSGGGLVQAGGSLRLSCAASGSIFAINEINLMGWYRQAPGKQRELVAACASDGNTYYADSVKGRFTISRDNAEKTVYLQMNNLKPDDTAVYYCDANSRGNYYSGQGTQVTVSSTSGPGGQGAEQKLISEEDLGAHHHHHHGAS
notes: CD19 variant-VHH fusion
EC50 [2]: 3.4 nM
EC50 [3]: 0.157 µg/mL
C of the 4-P fit (midpoint) [4]: 0.0113 µg/mL
EC50 [4]: 0.0113 µg/mL and 0.243 nM

B7: #335 (VHH)
fusion protein, single chain: B6 chain with Q297V, Q298E, Q405L
notes: also called CD19 mutant #2-G4Sx4-anti CLEC12a VHH 2C8-His
C of the 4-P fit (midpoint) [4]: 0.0108 µg/mL
EC50 [4]: 0.0108 µg/mL and 0.232 nM

B9: #334 (VHH)
fusion protein, single chain: B6 chain with Q298E
notes: also called CD19 mutant #2-G4Sx4-anti CLEC12a VHH 1B1-His
C of the 4-P fit (midpoint) [4]: 0.0112 µg/mL
EC50 [4]: 0.0112 µg/mL and 0.241 nM

B10: #290 (VHH)
fusion protein, single chain: PEEPLVVKVEEGDTAVLPCLKGTSDGPTQQLTWSRESPLKPFLKYSLGVPGLGVHVRPDAISVVIRNVSQQMGGFYLCQPGPPSEKAWQPGWTVNVEGSGELFRWNVSDLGGLGCGLKNRSSEGPSSPSGKLMSPKLYVWAKDRPEIWEGEPPCLPPRDSLNQSLSQDLTMAPGSTLWLSCGVPPDSVSRGPLSWTHVHPKGPKSLLSLELKDDRPAREMIVDETGLLLPRATAQDAGKWYCSRGNVTTSYHLEITARPVKAHSDLRTGGWKGGGGSGGGGSGGGGSGGGGSQVQLQESGGGLVQPGGSLRLSCAASGFTFNSYAMTWVRQAPGKGLEWVSDINSGGGSTNYADSVKGRFTISRDNAKNTLYLQMNSLKPEDTAVYYCATELRGSDYYRGPIREYAYWGQGTLVTVSSTSGPGGQGAEQKLISEEDLGAHHHHHHGAS
notes: also called construct #290; CD19 mutant #2-G4Sx4-anti CLEC12a VHH 1H1-His
C of the 4-P fit (midpoint) [4]: 0.037 µg/mL
EC50 [4]: 0.037 µg/mL and 0.796 nM

B12: anti-CLEC12a VHH 1B12-G4Sx4-CD19 D1+2 C term mutant #2-His (VHH)
VHH: QVQLQASGGGLVQAGGSLRLSCAASGSIFAINEINLMGWYRQAPGKQRELVAACASDGNTYYADSVKGRFTISRDNAEKTVYLQMNNLKPDDTAVYYCDANSRGNYYSGQGTQVTVSS
C of the 4-P fit (midpoint) [1]: 0.015 µg/mL
EC50 [1]: 0.015 µg/mL and 0.323 nM

B15: CD19 ECD N term mutant#3-EGFR Fn3 (designed binder)
chain: PEEPLVVKVEEGDTAALWCLKGTSDGPTQQLTWSRESPLKPFLKLSLGLPGMGVHMRPGAVSAVISNVSQQMGGFYLCQPGPPSEKAWQPGWTVNVEGSGELFRWNVSDLGGLGCGLKNRSSEGPSSPSGKLMSPKLYVWAKDRPEIWEGEPPCLPPRDSLNQSLSRDMTVAPGSTLWLSCGVPPDSVSRGPLSWTHVHPKGPKSLLSLELKDDRPARDMWVMGTSLILPRATAQDAGKYYCHRGNLTMSFHLEVVARPVKAHSDLRTGGWKGGGGSGGGGSGGGGSGGGGSVSDVPRDLEVVAATPTSLLISWFDYAVTYYRITYGETGGNSPVQEFTVPGWISTATISGLKPGVDYTITVYAVTDNSHWPFRSTPISTNYRTEIDKPPQHHHHHH
notes: Fusion protein; also called construct #229; CD19-Fn3/EGFR
binding result [5]: binds

Next, values leading:

C of the 4-P fit (midpoint) [4]: 0.0106 µg/mL
EC50 [4]: 0.0106 µg/mL and 0.228 nM
B3: #333 (VHH)
fusion protein, single chain: B2 chain with A306V, G308E, A316V, S319D, I320T, V325L, Q402L
notes: also called CD19 mutant #2-G4Sx4-anti CLEC12a VHH 1A10-His

EC50 [2]: 3.76 nM
EC50 [3]: 0.173 µg/mL
B5: CD19 mutant #2-G4Sx4-anti CLEC12a VHH 2F3-myc-His (VHH)
chain: PEEPLVVKVEEGDTAVLPCLKGTSDGPTQQLTWSRESPLKPFLKYSLGVPGLGVHVRPDAISVVIRNVSQQMGGFYLCQPGPPSEKAWQPGWTVNVEGSGELFRWNVSDLGGLGCGLKNRSSEGPSSPSGKLMSPKLYVWAKDRPEIWEGEPPCLPPRDSLNQSLSQDLTMAPGSTLWLSCGVPPDSVSRGPLSWTHVHPKGPKSLLSLELKDDRPAREMIVDETGLLLPRATAQDAGKWYCSRGNVTTSYHLEITARPVKAHSDLRTGGWKGGGGSGGGGSGGGGSGGGGSQVQLQAFGGGLVQPGGSLRLSCVVSGTMFSGKDVNWLRQAPGKHVEVVATVSSDGGTDYADFVKGRFTISRDDAKNTVNLQMNSLEPEDTANYMCHFLWGRHYWGQGTQVTVSSTSGPGGQGAEQKLISEEDLGAHHHHHHGAS
notes: CD19 variant-VHH fusion

EC50 [2]: 3.29 nM
EC50 [3]: 0.151 µg/mL
C of the 4-P fit (midpoint) [4]: 0.00983 µg/mL
EC50 [4]: 0.0098 µg/mL and 0.21 nM
B8: CD19 mutant #2-G4Sx4-anti CLEC12a VHH 2F5-myc-His (VHH)
chain: B6 chain with V304A, A306T, R311I
notes: CD19 variant-VHH fusion

binding result [5]: binds
B11: CD19 ECD N term mutant#2-EGFR Fn3 (designed binder)
chain: PEEPLVVKVEEGDTAVLPCLKGTSDGPTQQLTWSRESPLKPFLKYSLGVPGLGVHVRPDAISVVIRNVSQQMGGFYLCQPGPPSEKAWQPGWTVNVEGSGELFRWNVSDLGGLGCGLKNRSSEGPSSPSGKLMSPKLYVWAKDRPEIWEGEPPCLPPRDSLNQSLSQDLTMAPGSTLWLSCGVPPDSVSRGPLSWTHVHPKGPKSLLSLELKDDRPAREMIVDETGLLLPRATAQDAGKWYCSRGNVTTSYHLEITARPVKAHSDLRTGGWKGGGGSGGGGSGGGGSGGGGSVSDVPRDLEVVAATPTSLLISWFDYAVTYYRITYGETGGNSPVQEFTVPGWISTATISGLKPGVDYTITVYAVTDNSHWPFRSTPISTNYRTEIDKPPQHHHHHH
notes: Fusion protein; also called CD19-Fn3/EGFR

C of the 4-P fit (midpoint) [1]: 0.00648 µg/mL
EC50 [1]: 0.0065 µg/mL and 0.14 nM
B13: anti-CLEC12a VHH 1B1-G4Sx4-CD19 D1+2 C term mutant #2-His (VHH)
VHH: B12 VHH with A6E

C of the 4-P fit (midpoint) [1]: 0.0107 µg/mL
EC50 [1]: 0.0107 µg/mL and 0.23 nM
B14: #329 (VHH)
VHH: B12 VHH with A6Q, V12A, A14T, R19I
notes: also called anti CLEC12a VHH 2F5-G4Sx4-CD19 C-term mutant #2-His
